Measured values from patent publication US7524646B2 (priority 2001, dated 2009).
Entries after “also recorded” stand apart in the source; their conditions may differ.

Experiments:
[1] = test system: strains bearing thyA:Val146 alleles; experiment: Cysteine suppression of thyA:Val146 alleles on gradient plates; assay type: cell-based, E. coli; conditions: gradient starting at 100 mM L-cysteine, no thymidine
Procedure: […] Ile-Val (0.3 mM) was added in one plate as a control. The dipeptide Ile-Val was purchased from Bachem A G (Bubendorf, Switzerland). Plates were incubated for 2 days at 30° C.
We took advantage of the thyA conditional selection screen in E. coli, based on the absolute requirement for an active thymidylate synthase when thymidine is not provided as a growth factor (13). This same screen was used previously to assess the potency of suppressor Cys-tRNAs in codon misreading (14) and to enforce phenotypic suppression by the non-canonical azaleucine (15). An entire set of plasmid-borne thyA alleles with all 64 different codons at position 146 was constructed for altering the catalytic site occupied by an essential Cys (16, 17). Each allele was tested for its ability to restore growth to an E. coli strain (lacking the chromosomal copy of thyA) on mineral glucose medium in the absence of thymidine (14, 15). Three of the 64 plasmid-borne thyA alleles restored growth. These had one of three codons-UGU, UGC, or UGA. The growth responses of the UGU and UGC alleles were expected, as these code for cysteine.
Shallow growth was reproducibly observed on L-cysteine gradient plates (18) for the missense alleles having any of the eight codons AUN and GUN alone. […]

strain β5520 = experiment: Suppression of thymidine auxotrophy by S-carbamoyl-cysteine; assay type: cell-based, E. coli; conditions: absence of thymidine, aerobic
Procedure: One-step selection scheme. For the one-step selections, cysteine oxidation under aerobiosis and subsequent cystine precipitation from the growth medium was avoided by use of the non-oxidizable precursor S-carbamoyl-cysteine (Scc). Scc is a poor precursor of cysteine and sustains growth of a Cys-auxotrophic E. coli strain less efficiently than cysteine. However, at concentrations above 1 mM, Scc gave rise to suppression of the thymidine auxotrophy of strain β5520, while in the absence of thymidine no growth was detectable below 1 mM Scc. When β5419 cells bearing the thyA:Val146GUA allele on a high copy plasmid were plated on mineral glucose plates supplemented with Scc (3 mM), no colonies grew after prolonged incubation at 30° C. (The experiment was designed to detect a mutant at a frequency of 10^−10.) To increase the mutation frequency, a mutS::spc+ (33) mutator allele was introduced in the genetic background of strain β5419 by P1 transduction, yielding strain β5432 (the mutS::spc+ disruption disables the mismatch repair system and leads to random transitions and frameshifts (34)). Colonies then appeared on the same medium with a frequency of about 10^−8. No colonies were found on plates lacking Scc.

[2] = test system: five different valS strains (editing mutants); assay type: cell-based, E. coli; conditions: at 2 mM
Procedure: (§1) FIG. 1C: Photographs showing the results of growth of a strain carrying the valS:T222P allele in the presence of L-threonine or Abu. Minimal medium plates supplemented with thymidine (0.3 mM) were pretreated with amino acid solutions by streaking either with Thr (50 μl (0.2 M)) or Abu (50 μl (0.1 M)) vertically along the diameter of the plate to create an amino acid gradient. Mutant (β5456) and wild-type (β5419 (thyA::erm+ ΔnrdD::kan+ pTS13 (bla+ thyA: 146GUA)) strains were then streaked horizontally across the plates and incubated for 2 days at 37° C.
(§2) ValRS is known to misactivate Thr and generate Thr-tRNA^Val, which normally is hydrolyzed by the ValRS editing activity (9). If the ValRS mutants in Table 1 are impared for editing, then strains bearing each of these mutations should misincoporate Thr into protein, and L-threonine would then be toxic in these strains. The growth of the five different valS strains was therefore tested in the presence of L-threonine.

parent strain β5419 = experiment: Growth of parent strain in the presence of L-threonine; assay type: cell-based, E. coli; conditions: all concentrations
Procedure: as §1, §2

tRNA^Val [3] = experiment: Misacylation of tRNAVal with Thr; assay type: biochemical, E. coli; conditions: pH 7.5, 37° C.
Procedure: (§3) FIG. 2B: A graph showing misaminoacylation of tRNA^Val with Thr by the T222P mutant enzyme at pH 7.5 and 37° C. The wild-type (WT) and mutant alleles were cloned under the control of a PBAD promoter (30). The enzymes were partially purified from a laboratory strain lacking the chromosomal copy of the valS gene (ΔvalS::kan+). The purification and aminoacylation procedures were adapted from Hendrickson et al. (31). (Main panel) Misaminoacylation of tRNA^Val with Thr by the two enzymes. (Inset) Aminoacylation of tRNA^Val with Val by the two enzymes.
(§4) Aminoaclyation Assay, Misacylation, and Deacylation: Aminoacylation assays were performed at 37 C. in a 100 uL volume containing buffer (20 mM HEPES, 0.1 mM EDTA disodium salt, 0.15M NH4Cl, 10 ug/mL BSA pH 7.5), […] MgCl2, 0.7 μM [^3H]Val, 20 μM cold Val, 2 μM tRNAval (Sigma) and 20 nM ValRS enzyme (adapted from Hendrickson et al. 2000). Aliquots (10 μL) of the reaction mixture were precipitated with tricholoracetic acid, and the level of aminoacylation of the tRNA was determined by scintillation counting.
(§5) Misacylation of Thr onto tRNAval was performed in the same conditions except 5.86 μM [^3H]Thr was substituted forVal in the reaction. To test deacylation rates for these enzymes it was necessary to generate [^3H]Thr-tRNAval. […] Enzyme was incubated with 2.5 μM tRNAval and 45 uM [^3H]Thr, incubated at 37 C. for 45 minutes, extracted twice in phenol:chloroform, and ethanol precipitated. Pellet was dissolved in 100 μL sterile H2O and scintillation counting was used to determine the success of the reaction. Deacylation reactions, done in triplicate for each enzyme, were performed in 155 mM Tris-HCl (pH 7.5), 100 μg/ml BSA, 10 mM MgCl2. At room temperature 2 nM enzyme was combined with [^3H]Thr-tRNAval, at 3, 6, 9, 16, and 30 minutes aliquots (9 μL) of the reaction mixture were precipitated with tricholoracetic acid, and the amount of misaminoacylated [^3H]Thr-tRNAval remaining in the sample was determined by scintillation counting. A no enzyme control reaction was included to provide reference point.

tRNA^Val [4] = experiment: Misacylation of tRNAVal with cysteine; assay type: biochemical, E. coli
Text: The T222P mutant enzyme was, therefore, expressed and partially purified so that it could be directly assayed for the ability to misacylate tRNA^Val.

[^3H]Thr-tRNAval = Deacylation of mischarged Thr-tRNAVal by ValRS enzymes; assay type: biochemical, E. coli; conditions: 2 nM enzyme, room temperature
Procedure: FIG. 5B: Histogram representation of the inhibition zone diameters of DvalS::kanR strains harboring each of the ValRS editing mutants on plasmid in response to exogenous Abu. Effects range from mild to severe. Histogram representation of the percentage of mischarged Thr-tRNAVal remaining after incubation with 2 nM enzyme for 15 minutes at room temperature. Both show a distinct range in the severity of editing defects caused by these point mutations. Taken together this illustrates a correlation between the ability of the mutant enzyme to deacylate mischarged amino acids from tRNAVal in vitro and the degree of in vivo toxicity.
as §5

tRNA^Val [5] = experiment: Aminoacylation of tRNAVal with Val; assay type: biochemical, E. coli; conditions: pH 7.5, 37° C.
Procedure: as §3, §4

For `N[C@@H](CS)C(=O)O` [L-cysteine], the “suppression of thyA:Val146 alleles” value [1] was “weak”.

`NC(=O)SC[C@H](N)C(=O)O` [Scc, S-carbamoyl-cysteine] was tested, and the “concentration giving suppression of the thymidine auxotrophy” value (strain β5520) was “above 1 mM”.

In the case of `C[C@@H](O)[C@H](N)C(=O)O` [L-threonine], the “sensitivity of growth to exogenous L-threonine” value [2] is reported as “high sensitivity” and the “sensitivity of growth to exogenous L-threonine” value (parent strain β5419) is reported as “insensitive”.

B1: T222P (protein, UniProt P07118 1-951, looked up, variant T222P)
Valine--tRNA ligase: MEKTYNPQDIEQPLYEHWEKQGYFKPNGDESQESFCIMIPPPNVTGSLHMGHAFQQTIMDTMIRYQRMQGKNTLWQVGTDHAGIATQMVVERKIAAEEGKTRHDYGREAFIDKIWEWKAESGGTITRQMRRLGNSVDWERERFTMDEGLSNAVKEVFVRLYKEDLIYRGKRLVNWDPKLRTAISDLEVENRESKGSMWHIRYPLADGAKTADGKDYLVVATPRPETLLGDTGVAVNPEDPRYKDLIGKYVILPLVNRRIPIVGDEHADMEKGTGCVKITPAHDFNDYEVGKRHALPMINILTFDGDIRESAQVFDTKGNESDVYSSEIPAEFQKLERFAARKAVVAAVDALGLLEEIKPHDLTVPYGDRGGVVIEPMLTDQWYVRADVLAKPAVEAVENGDIQFVPKQYENMYFSWMRDIQDWCISRQLWWGHRIPAWYDEAGNVYVGRNEDEVRKENNLGADVVLRQDEDVLDTWFSSALWTFSTLGWPENTDALRQFHPTSVMVSGFDIIFFWIARMIMMTMHFIKDENGKPQVPFHTVYMTGLIRDDEGQKMSKSKGNVIDPLDMVDGISLPELLEKRTGNMMQPQLADKIRKRTEKQFPNGIEPHGTDALRFTLAALASTGRDINWDMKRLEGYRNFCNKLWNASRFVLMNTEGQDCGFNGGEMTLSLADRWILAEFNQTIKAYREALDSFRFDIAAGILYEFTWNQFCDWYLELTKPVMNGGTEAELRGTRHTLVTVLEGLLRLAHPIIPFITETIWQRVKVLCGITADTIMLQPFPQYDASQVDEAALADTEWLKQAIVAVRNIRAEMNIAPGKPLELLLRGCSADAERRVNENRGFLQTLARLESITVLPADDKGPVSVTKIIDGAELLIPMAGLINKEDELARLAKEVAKIEGEISRIENKLANEGFVARAPEAVIAKEREKLEGYAEAKAKLIEQQAVIAAL
With B1 the “misacylation of tRNA^Val with Thr” value (tRNA^Val [3]) was “high levels of mischarged Thr-tRNA^Val; also recorded: misacylated tRNA^Val with Thr”, the “misacylation of tRNA^Val with cysteine” value (tRNA^Val [4]) was “catalyzed only by the mutant enzyme” and the “deacylation of Thr-tRNA^Val in vitro” value ([^3H]Thr-tRNAval) was “most severe defects”. The “activity for charging tRNA^Val with valine” value (tRNA^Val [5]) was “same activity as the wild-type enzyme”.

B2: V276A: ValRS of E. coli with single substitution V276A in the editing domain (protein, UniProt P07118 1-951, looked up, variant V276A)
Valine--tRNA ligase: MEKTYNPQDIEQPLYEHWEKQGYFKPNGDESQESFCIMIPPPNVTGSLHMGHAFQQTIMDTMIRYQRMQGKNTLWQVGTDHAGIATQMVVERKIAAEEGKTRHDYGREAFIDKIWEWKAESGGTITRQMRRLGNSVDWERERFTMDEGLSNAVKEVFVRLYKEDLIYRGKRLVNWDPKLRTAISDLEVENRESKGSMWHIRYPLADGAKTADGKDYLVVATTRPETLLGDTGVAVNPEDPRYKDLIGKYVILPLVNRRIPIVGDEHADMEKGTGCAKITPAHDFNDYEVGKRHALPMINILTFDGDIRESAQVFDTKGNESDVYSSEIPAEFQKLERFAARKAVVAAVDALGLLEEIKPHDLTVPYGDRGGVVIEPMLTDQWYVRADVLAKPAVEAVENGDIQFVPKQYENMYFSWMRDIQDWCISRQLWWGHRIPAWYDEAGNVYVGRNEDEVRKENNLGADVVLRQDEDVLDTWFSSALWTFSTLGWPENTDALRQFHPTSVMVSGFDIIFFWIARMIMMTMHFIKDENGKPQVPFHTVYMTGLIRDDEGQKMSKSKGNVIDPLDMVDGISLPELLEKRTGNMMQPQLADKIRKRTEKQFPNGIEPHGTDALRFTLAALASTGRDINWDMKRLEGYRNFCNKLWNASRFVLMNTEGQDCGFNGGEMTLSLADRWILAEFNQTIKAYREALDSFRFDIAAGILYEFTWNQFCDWYLELTKPVMNGGTEAELRGTRHTLVTVLEGLLRLAHPIIPFITETIWQRVKVLCGITADTIMLQPFPQYDASQVDEAALADTEWLKQAIVAVRNIRAEMNIAPGKPLELLLRGCSADAERRVNENRGFLQTLARLESITVLPADDKGPVSVTKIIDGAELLIPMAGLINKEDELARLAKEVAKIEGEISRIENKLANEGFVARAPEAVIAKEREKLEGYAEAKAKLIEQQAVIAAL
In the case of B2, the “misacylation of tRNA^Val with Thr” value (tRNA^Val [3]) is reported as “low levels of mischarging” and the “deacylation of Thr-tRNA^Val in vitro” value ([^3H]Thr-tRNAval) is reported as “closer to wild-type ValRS”.
